The text below walks through data of patent publication US20220010021A1 (Sanofi, published 2022).

For orientation: koff means the first-order rate constant of dissociation.

Assay [1] has as its target cell surface receptor composed of FGFR1c and co-receptor beta-Klotho (KLB) (human, UniProt P11362 22-822; Q86Z14 1-1044). As to the kind of experiment: cell-based or functional assay. On Mean E max, Luciferase reporter gene assay: reference of the scale not given here.
The next assay concerns the target T1, human beta-Klotho (KLB) (human, UniProt Q86Z14 53-997).
T1 construct: Bought soluble protein; also called human KLB; ß-Klotho
T1 sequence (looked up): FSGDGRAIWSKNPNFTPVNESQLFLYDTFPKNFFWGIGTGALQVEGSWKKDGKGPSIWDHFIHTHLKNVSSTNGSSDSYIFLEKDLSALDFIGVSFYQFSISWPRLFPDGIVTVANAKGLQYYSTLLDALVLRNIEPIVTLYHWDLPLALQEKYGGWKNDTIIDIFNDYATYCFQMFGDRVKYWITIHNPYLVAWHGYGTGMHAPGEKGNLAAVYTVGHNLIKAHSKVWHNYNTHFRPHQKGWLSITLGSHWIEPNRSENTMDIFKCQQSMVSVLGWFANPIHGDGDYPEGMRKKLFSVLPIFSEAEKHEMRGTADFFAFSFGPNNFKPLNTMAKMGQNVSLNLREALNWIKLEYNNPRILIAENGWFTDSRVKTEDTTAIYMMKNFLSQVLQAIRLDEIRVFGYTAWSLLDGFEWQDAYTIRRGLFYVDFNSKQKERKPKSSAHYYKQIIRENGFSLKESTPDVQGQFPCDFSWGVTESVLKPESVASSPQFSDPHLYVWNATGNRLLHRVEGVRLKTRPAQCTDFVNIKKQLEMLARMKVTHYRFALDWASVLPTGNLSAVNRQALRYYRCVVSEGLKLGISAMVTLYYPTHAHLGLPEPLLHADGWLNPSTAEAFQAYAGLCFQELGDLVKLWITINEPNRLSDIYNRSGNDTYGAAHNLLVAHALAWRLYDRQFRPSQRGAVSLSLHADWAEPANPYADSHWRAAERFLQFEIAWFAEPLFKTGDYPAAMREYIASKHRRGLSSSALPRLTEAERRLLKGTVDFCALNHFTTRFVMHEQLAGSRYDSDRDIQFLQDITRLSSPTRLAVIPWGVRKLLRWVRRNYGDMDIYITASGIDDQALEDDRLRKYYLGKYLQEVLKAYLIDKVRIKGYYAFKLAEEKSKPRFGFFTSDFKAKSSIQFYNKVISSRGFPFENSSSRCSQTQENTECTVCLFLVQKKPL
In words: BLI off-rate screen, supernatant.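 Further: expression supernatants tested at 25 µg/mL, dissociation followed for 1800 s in D-PBS with 0.1% BSA.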

Chain of cell surface receptor composed of FGFR1c and co-receptor beta-Klotho (KLB) (P11362 22-822, chain 1 of 2): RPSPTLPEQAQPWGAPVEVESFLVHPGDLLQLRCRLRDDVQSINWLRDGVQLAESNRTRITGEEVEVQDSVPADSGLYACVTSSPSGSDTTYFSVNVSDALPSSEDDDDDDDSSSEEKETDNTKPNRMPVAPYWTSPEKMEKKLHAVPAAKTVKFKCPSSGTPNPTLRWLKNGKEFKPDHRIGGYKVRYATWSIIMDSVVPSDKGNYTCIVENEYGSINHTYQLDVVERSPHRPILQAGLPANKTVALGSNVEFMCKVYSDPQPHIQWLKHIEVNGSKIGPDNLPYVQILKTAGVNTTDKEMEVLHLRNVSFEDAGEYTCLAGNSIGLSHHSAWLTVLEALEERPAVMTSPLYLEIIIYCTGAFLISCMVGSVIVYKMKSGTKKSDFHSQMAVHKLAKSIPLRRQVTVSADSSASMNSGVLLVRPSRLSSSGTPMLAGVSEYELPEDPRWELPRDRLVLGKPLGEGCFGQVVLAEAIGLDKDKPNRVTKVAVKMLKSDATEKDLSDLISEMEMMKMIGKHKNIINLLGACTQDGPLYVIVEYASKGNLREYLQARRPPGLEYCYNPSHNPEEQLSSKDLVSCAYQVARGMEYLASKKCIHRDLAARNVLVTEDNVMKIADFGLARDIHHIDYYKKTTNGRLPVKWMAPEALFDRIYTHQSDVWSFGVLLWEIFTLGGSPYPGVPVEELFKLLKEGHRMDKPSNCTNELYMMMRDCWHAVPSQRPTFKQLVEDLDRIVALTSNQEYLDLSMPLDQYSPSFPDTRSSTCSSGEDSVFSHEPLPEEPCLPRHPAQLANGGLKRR
Chain of cell surface receptor composed of FGFR1c and co-receptor beta-Klotho (KLB) (Q86Z14 whole entry, chain 2 of 2): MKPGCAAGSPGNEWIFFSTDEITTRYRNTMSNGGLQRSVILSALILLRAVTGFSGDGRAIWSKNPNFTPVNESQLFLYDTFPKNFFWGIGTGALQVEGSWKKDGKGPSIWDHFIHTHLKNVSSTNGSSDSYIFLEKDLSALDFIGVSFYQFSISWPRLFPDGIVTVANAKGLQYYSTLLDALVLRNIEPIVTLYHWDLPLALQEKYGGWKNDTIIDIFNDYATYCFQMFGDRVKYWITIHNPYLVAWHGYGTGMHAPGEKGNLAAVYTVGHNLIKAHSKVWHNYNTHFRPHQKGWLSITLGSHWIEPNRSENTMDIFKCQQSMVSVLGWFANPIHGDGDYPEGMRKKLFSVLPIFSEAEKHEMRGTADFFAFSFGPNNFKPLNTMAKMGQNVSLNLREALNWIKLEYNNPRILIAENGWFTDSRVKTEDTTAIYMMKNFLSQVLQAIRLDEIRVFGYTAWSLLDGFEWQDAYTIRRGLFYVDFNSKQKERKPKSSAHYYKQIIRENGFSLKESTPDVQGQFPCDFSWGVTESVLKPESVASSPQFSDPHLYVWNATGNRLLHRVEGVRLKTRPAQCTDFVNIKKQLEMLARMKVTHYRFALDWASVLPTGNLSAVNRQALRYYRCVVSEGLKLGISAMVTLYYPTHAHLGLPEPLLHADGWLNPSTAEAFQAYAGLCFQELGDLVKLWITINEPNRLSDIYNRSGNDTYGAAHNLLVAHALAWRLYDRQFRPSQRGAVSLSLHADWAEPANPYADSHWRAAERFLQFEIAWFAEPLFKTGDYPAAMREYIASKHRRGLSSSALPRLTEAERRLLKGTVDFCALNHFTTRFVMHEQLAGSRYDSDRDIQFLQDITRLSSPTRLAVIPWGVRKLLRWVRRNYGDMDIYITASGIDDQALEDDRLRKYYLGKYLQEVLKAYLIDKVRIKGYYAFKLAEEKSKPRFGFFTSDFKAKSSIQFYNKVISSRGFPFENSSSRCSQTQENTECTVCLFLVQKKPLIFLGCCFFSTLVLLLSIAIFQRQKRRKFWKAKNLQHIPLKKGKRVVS

B1: 16H7 light chain variant E30T (antibody, V domains shown)
VH: not shown
VL: SYVLTQPPSVSVAPGQTARITCGGNNIGSTSVHWYQQKPGQAPVLVVYDDSDRPSGIPERFSGSNSGNTATLTISRVEAGDEADYYCQVWDGNSDHVVFGGGTKLTVLG
notes: copies: 2 + 2
As to B1, in assay [1], the “Mean E max, Luciferase reporter gene assay” value (“Mean E max” for short) was 100% and the “Mean EC50, Luciferase reporter gene assay” value (“Mean EC50” for short) stood at 0.105 nM. This molecule also had a koff with human beta-Klotho (KLB) of 4.9e-05 s⁻¹.

B2: 16H7 light chain variant E30Y (antibody, V domains shown)
VH: not shown
VL: SYVLTQPPSVSVAPGQTARITCGGNNIGSYSVHWYQQKPGQAPVLVVYDDSDRPSGIPERFSGSNSGNTATLTISRVEAGDEADYYCQVWDGNSDHVVFGGGTKLTVLG
notes: copies: 2 + 2
For B2, in assay [1], the “Mean E max” value came out at 107% and the “Mean EC50” value stood at 0.152 nM. This molecule showed a koff with human beta-Klotho (KLB) of 7.6e-05 s⁻¹.

B3: 16H7 light chain variant G28W (antibody, human IgG4 S228P, lambda, V domains shown)
VH: not shown
VL: SYVLTQPPSVSVAPGQTARITCGGNNIWSESVHWYQQKPGQAPVLVVYDDSDRPSGIPERFSGSNSGNTATLTISRVEAGDEADYYCQVWDGNSDHVVFGGGTKLTVLG
As for B3, in assay [1], the “Mean E max” value was determined as 96% and the “Mean EC50” value worked out at 0.142 nM. In the assay with human beta-Klotho (KLB), this molecule registered a koff of 3.7e-05 s⁻¹.

B4: 16H7 light chain variant E30V (antibody, V domains shown)
VH: not shown
VL: SYVLTQPPSVSVAPGQTARITCGGNNIGSVSVHWYQQKPGQAPVLVVYDDSDRPSGIPERFSGSNSGNTATLTISRVEAGDEADYYCQVWDGNSDHVVFGGGTKLTVLG
notes: copies: 2 + 2
As to B4, in assay [1], the “Mean E max” value was found to be 108% and the “Mean EC50” value came to 0.14 nM. Further, in the assay with human beta-Klotho (KLB), the koff is 4.1e-05 s⁻¹.

B5: 16H7 light chain variant G28S (antibody, human IgG4 S228P, lambda, V domains shown)
VH: not shown
VL: SYVLTQPPSVSVAPGQTARITCGGNNISSESVHWYQQKPGQAPVLVVYDDSDRPSGIPERFSGSNSGNTATLTISRVEAGDEADYYCQVWDGNSDHVVFGGGTKLTVLG
For B5, in assay [1], the “Mean E max” value stood at 109% and the “Mean EC50” value turned out to be 0.14 nM. This molecule registered a koff in the assay with human beta-Klotho (KLB) of 2.3e-06 s⁻¹.

B6: 16H7 light chain variant G28D (antibody, human IgG4 S228P, lambda, V domains shown)
VH: not shown
VL: SYVLTQPPSVSVAPGQTARITCGGNNIDSESVHWYQQKPGQAPVLVVYDDSDRPSGIPERFSGSNSGNTATLTISRVEAGDEADYYCQVWDGNSDHVVFGGGTKLTVLG
For the molecule B6, in assay [1], the “Mean E max” value turned out to be 107% and the “Mean EC50” value is 0.126 nM. In addition, the koff in the assay with human beta-Klotho (KLB) stood at 4e-05 s⁻¹.

B7: 16H7 light chain variant G28K (antibody, human IgG4 S228P, lambda, V domains shown)
VH: not shown
VL: SYVLTQPPSVSVAPGQTARITCGGNNIKSESVHWYQQKPGQAPVLVVYDDSDRPSGIPERFSGSNSGNTATLTISRVEAGDEADYYCQVWDGNSDHVVFGGGTKLTVLG
Consider B7, for which, in assay [1], the “Mean E max” value worked out at 108% and the “Mean EC50” value was found to be 0.149 nM. The koff with human beta-Klotho (KLB) worked out at 3.3e-05 s⁻¹.

B8: 16H7 light chain variant G28N (antibody, human IgG4 S228P, lambda, V domains shown)
VH: not shown
VL: SYVLTQPPSVSVAPGQTARITCGGNNINSESVHWYQQKPGQAPVLVVYDDSDRPSGIPERFSGSNSGNTATLTISRVEAGDEADYYCQVWDGNSDHVVFGGGTKLTVLG
For B8, in assay [1], the “Mean E max” value came out at 113% and the “Mean EC50” value was found to be 0.111 nM. The same molecule displayed a koff with human beta-Klotho (KLB) of 1.8e-05 s⁻¹.

B9: 16H7 light chain variant G28L (antibody, human IgG4 S228P, lambda, V domains shown)
VH: not shown
VL: SYVLTQPPSVSVAPGQTARITCGGNNILSESVHWYQQKPGQAPVLVVYDDSDRPSGIPERFSGSNSGNTATLTISRVEAGDEADYYCQVWDGNSDHVVFGGGTKLTVLG
With B9, in assay [1], the “Mean E max” value is 104% and the “Mean EC50” value was found to be 0.137 nM. In the assay with human beta-Klotho (KLB), this molecule gave a koff of 6.1e-06 s⁻¹.

B10: 16H7 light chain variant G28I (antibody, human IgG4 S228P, lambda, V domains shown)
VH: not shown
VL: SYVLTQPPSVSVAPGQTARITCGGNNIISESVHWYQQKPGQAPVLVVYDDSDRPSGIPERFSGSNSGNTATLTISRVEAGDEADYYCQVWDGNSDHVVFGGGTKLTVLG
Regarding B10, in assay [1], the “Mean E max” value worked out at 112% and the “Mean EC50” value came out at 0.132 nM. In the assay with human beta-Klotho (KLB), the koff was 3.3e-05 s⁻¹.

B11: 16H7 light chain variant G28P (antibody, human IgG4 S228P, lambda, V domains shown)
VH: not shown
VL: SYVLTQPPSVSVAPGQTARITCGGNNIPSESVHWYQQKPGQAPVLVVYDDSDRPSGIPERFSGSNSGNTATLTISRVEAGDEADYYCQVWDGNSDHVVFGGGTKLTVLG
On to B11, for which, in assay [1], the “Mean E max” value turned out to be 103% and the “Mean EC50” value amounted to 0.132 nM. The molecule further gave a koff with human beta-Klotho (KLB) of 6.2e-05 s⁻¹.

B12: 16H7 light chain variant G28E (antibody, human IgG4 S228P, lambda, V domains shown)
VH: not shown
VL: SYVLTQPPSVSVAPGQTARITCGGNNIESESVHWYQQKPGQAPVLVVYDDSDRPSGIPERFSGSNSGNTATLTISRVEAGDEADYYCQVWDGNSDHVVFGGGTKLTVLG
As for B12, in assay [1], the “Mean E max” value is 105% and the “Mean EC50” value amounted to 0.12 nM. Moreover, in the assay with human beta-Klotho (KLB), the dissociation rate constant (koff) turned out to be 1.8e-05 s⁻¹.

B13: 16H7 light chain variant G28T (antibody, human IgG4 S228P, lambda, V domains shown)
VH: not shown
VL: SYVLTQPPSVSVAPGQTARITCGGNNITSESVHWYQQKPGQAPVLVVYDDSDRPSGIPERFSGSNSGNTATLTISRVEAGDEADYYCQVWDGNSDHVVFGGGTKLTVLG
B13: in assay [1], the “Mean E max” value stood at 110% and the “Mean EC50” value was found to be 0.187 nM. For the same molecule, the koff with human beta-Klotho (KLB) was 1.5e-06 s⁻¹.

B14: 16H7 light chain variant I27F (antibody, V domains shown)
VH: not shown
VL: SYVLTQPPSVSVAPGQTARITCGGNNFGSESVHWYQQKPGQAPVLVVYDDSDRPSGIPERFSGSNSGNTATLTISRVEAGDEADYYCQVWDGNSDHVVFGGGTKLTVLG
notes: copies: 2 + 2
In the case of B14, in assay [1], the “Mean E max” value was 104% and the “Mean EC50” value stood at 0.118 nM. This molecule also came in with a koff with human beta-Klotho (KLB) of 2e-05 s⁻¹.

B15: 16H7 light chain variant G28R (antibody, human IgG4 S228P, lambda, V domains shown)
VH: not shown
VL: SYVLTQPPSVSVAPGQTARITCGGNNIRSESVHWYQQKPGQAPVLVVYDDSDRPSGIPERFSGSNSGNTATLTISRVEAGDEADYYCQVWDGNSDHVVFGGGTKLTVLG
As to B15, in assay [1], the “Mean E max” value worked out at 102% and the “Mean EC50” value was 0.138 nM. Also, in the assay with human beta-Klotho (KLB), the koff stood at 8.5e-05 s⁻¹.

B16: 16H7 light chain variant G28H (antibody, human IgG4 S228P, lambda, V domains shown)
VH: not shown
VL: SYVLTQPPSVSVAPGQTARITCGGNNIHSESVHWYQQKPGQAPVLVVYDDSDRPSGIPERFSGSNSGNTATLTISRVEAGDEADYYCQVWDGNSDHVVFGGGTKLTVLG
On to B16, for which, in assay [1], the “Mean E max” value is 108% and the “Mean EC50” value came to 0.165 nM. The molecule further displayed an off-rate (koff) with human beta-Klotho (KLB) of 1.8e-05 s⁻¹.

B17: 16H7 light chain variant I27A (antibody, human IgG4 S228P, lambda, V domains shown)
VH: not shown
VL: SYVLTQPPSVSVAPGQTARITCGGNNAGSESVHWYQQKPGQAPVLVVYDDSDRPSGIPERFSGSNSGNTATLTISRVEAGDEADYYCQVWDGNSDHVVFGGGTKLTVLG
Consider B17, for which, in assay [1], the “Mean E max” value is 107% and the “Mean EC50” value amounted to 0.111 nM. In the assay with human beta-Klotho (KLB), this molecule showed a koff of 5.3e-05 s⁻¹.

B18: 16H7 light chain variant G28F (antibody, human IgG4 S228P, lambda, V domains shown)
VH: not shown
VL: SYVLTQPPSVSVAPGQTARITCGGNNIFSESVHWYQQKPGQAPVLVVYDDSDRPSGIPERFSGSNSGNTATLTISRVEAGDEADYYCQVWDGNSDHVVFGGGTKLTVLG
Turning to B18, in assay [1], the “Mean E max” value was found to be 102% and the “Mean EC50” value came to 0.124 nM. Besides, the koff in the assay with human beta-Klotho (KLB) turned out to be 3.9e-05 s⁻¹.

B19: 16H7 light chain variant G28Y (antibody, human IgG4 S228P, lambda, V domains shown)
VH: not shown
VL: SYVLTQPPSVSVAPGQTARITCGGNNIYSESVHWYQQKPGQAPVLVVYDDSDRPSGIPERFSGSNSGNTATLTISRVEAGDEADYYCQVWDGNSDHVVFGGGTKLTVLG
As for B19, in assay [1], the “Mean E max” value was 109% and the “Mean EC50” value amounted to 0.131 nM. Further, the koff in the assay with human beta-Klotho (KLB) amounted to 5.3e-05 s⁻¹.

B20: 16H7 light chain variant I27C (antibody, human IgG4 S228P, lambda, V domains shown)
VH: not shown
VL: SYVLTQPPSVSVAPGQTARITCGGNNCGSESVHWYQQKPGQAPVLVVYDDSDRPSGIPERFSGSNSGNTATLTISRVEAGDEADYYCQVWDGNSDHVVFGGGTKLTVLG
Regarding B20, in assay [1], the “Mean E max” value is 106% and the “Mean EC50” value was 0.16 nM. In the assay with human beta-Klotho (KLB), the koff is 3.8e-05 s⁻¹.

B21: 16H7 light chain variant G28C (antibody, human IgG4 S228P, lambda, V domains shown)
VH: not shown
VL: SYVLTQPPSVSVAPGQTARITCGGNNICSESVHWYQQKPGQAPVLVVYDDSDRPSGIPERFSGSNSGNTATLTISRVEAGDEADYYCQVWDGNSDHVVFGGGTKLTVLG
As for B21, in assay [1], the “Mean E max” value was determined as 100% and the “Mean EC50” value is 0.103 nM. The koff with human beta-Klotho (KLB) stood at 9.1e-06 s⁻¹.
